Laboratory results taken from PMC10615203, “The 14-3-3 protein OsGF14f interacts with OsbZIP23 and enhances its activity to confer osmotic stress tolerance in rice”.

Experiments:
GST-OsbZIP23 = molecular target: T1, GST-OsbZIP23 (Oryza sativa, UniProt Q6Z312); experiment: EMSA; EMSA kit (Viagene) binding buffer (composition not given), room temperature, 20 min; 6% native PAGE; conditions: protein: recombinant; tags: GST (N-terminal, pGEX-4T-3); chain copies: 2; label: 5' biotin; blunt
T1 sequence: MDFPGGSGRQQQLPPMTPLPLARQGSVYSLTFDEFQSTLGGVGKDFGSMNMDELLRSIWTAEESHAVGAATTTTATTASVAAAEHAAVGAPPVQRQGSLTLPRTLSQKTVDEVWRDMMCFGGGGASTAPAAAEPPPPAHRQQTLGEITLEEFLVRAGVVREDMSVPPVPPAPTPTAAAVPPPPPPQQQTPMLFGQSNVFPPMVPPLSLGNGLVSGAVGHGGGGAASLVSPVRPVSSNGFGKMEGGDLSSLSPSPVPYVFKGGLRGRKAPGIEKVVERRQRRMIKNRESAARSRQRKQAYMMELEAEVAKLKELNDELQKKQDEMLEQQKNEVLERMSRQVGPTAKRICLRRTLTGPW

GST-OsGF14f = molecular target: T2, GST-OsGF14f (Oryza sativa, UniProt Q06967 1-260); experiment: as above; conditions: protein: recombinant; tags: GST (N-terminal, pGEX-4T-3); chain copies: 2; label: 5' biotin; blunt
T2 sequence: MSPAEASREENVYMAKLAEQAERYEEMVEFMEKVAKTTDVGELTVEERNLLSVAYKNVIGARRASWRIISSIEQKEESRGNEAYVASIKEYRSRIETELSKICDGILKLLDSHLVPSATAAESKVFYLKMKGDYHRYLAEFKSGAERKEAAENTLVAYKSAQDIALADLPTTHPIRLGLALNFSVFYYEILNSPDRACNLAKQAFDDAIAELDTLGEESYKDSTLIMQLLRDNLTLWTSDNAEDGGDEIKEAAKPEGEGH

B1: OsLEA3-2 promoter probe P1 (dsDNA)
DNA 1: ACCCGAGGCACACGTGTCCACCTCACCGGGGCACGTGTCGCGCCGT
DNA 2: ACGGCGCGACACGTGCCCCGGTGAGGTGGACACGTGTGCCTCGGGT
GST-OsbZIP23
  binding result: binds
GST-OsGF14f
  binding result: no binding

B2: OsGF14f promoter probe (dsDNA)
DNA 1: TGGCGCCTTGCCACGTGCCCCCTCCCT
DNA 2: AGGGAGGGGGCACGTGGCAAGGCGCCA
GST-OsbZIP23
  binding result: binds
